# From the DeepSol protein solubility set
# Assay: soluble on expression in E. coli; label from the status in PepcDB or PDB records
row,Sequence,soluble on expression in E. coli
1,MAHHHHHHMDGQSSSPAEPASGSVALLYDYTTANDAPVEVHRAAAGRLACSYRAECLAIENGFGHLMPPCLGTSQSPTRILVATDSLSAIEAFRCPLAMRDRVTEAILIMPLSLVKRGRPVEFIFSPSHCGIPRNEATDEEATISISLPQEGIPIWHVDFLTAVKRLCWKEFQEEAEGAYTARQAFVGVARTPFLISSQK,not soluble
2,MAHHHHHHMDKYGDRKLQEGIYKLNNKKIKGYIPFQSASSIIPKQIRDKGIIEVMKELEKREEELNEKTKNDQEKHKVNKMNLFKSNSMNVKRKHVFSSFKIPRKI,soluble
3,MAHHHHHHMDSASGDGGDGAPASAERHSLKPLRWIEEVRDASQPNAVFLNVYDVRGSSTLLYSVGWGVHHVGVQVYGKEYQYGHRPIGKGIGSVKPHQSPPHTYREQFFLGQTQLSASEVEKLVVAFSDKVEWLGSNYHLVKHNCIDFARAFCEALLPPAVRVEQARRAEEAGLSQKMHMVEVEVDGMRHSVPVLIPHHVDRLARYAAHYLPKSSMQRFDRLESSFFSMSEVPQERGQPTAADPDTNRSTTPTPQPHTRTSH,not soluble
4,MAHHHHHHMEALFYDHAVASTATRQADLRQALQAFLADAASRSAVQLIALFVHIPVPSTVSVASHTASGSRTSSRTSSSREGGSAAARHAATGKAASAASPSPPAASRRRCNAAKLAWCAWEADRRLRQAAEDASEMNKWLAHDDLSASRKAGAGIARSYCRGAFVVAVAFLAPCTRDDIVVYESWQRCTEMCAEASAADVARGSASRTTRMLSPLRHARLIALSLGAPSLLLSWAERPTRCHLDSLLLPHQSLLVDLSWWVATASGSAGTVSDAAAGSRVSNSVLRDIFISDVQRSLKLPKGDSRCAVWISYATLLESLHPQVMGRIDGADGDGVSVDMRVAGSASRRKRGRNTLCGEFSGVDEQAFMMTYARIRHLLSSLNASQAGAVGHTRFLRVVLSYGGPSSALRRQLVHTCSRTEHGVTAVDAALLRTRSLVDVHALFGVLAGQDTVNVYSEAAAFVRTARRRASAGEAAQQRHQRIAVQSARVEVTSSPSSGPPGTEHEGVDSGAGNLCHNAFVERGARALARRLRLWERKRLGKRGKRGVHVRPRDKAARRPMKRGHAGTNDADSERVLVHAVERASRAAATPKTGNKRRAEPLASVDGRPSASATRALLPPQKQRRTDAVAVSPTLATDTALRWSEDVAGSG,not soluble
5,MAHHHHHHMEEEKAGSSELVLAQESAWDKFGSKLKDMPFLNNFFENPILGKLFGETELAAALREMKMYDQNFKLSELMYLFEFVISKHIVESYLIGDEETLRVHCGQSAFNSLNASINERKKKKVYLDTNVLIYKNHELKGAQRMEESSPWFIFTFHTQQINCLKNANDEIIEGNIDDIREVVYTIALSKHPEPEREGLLYPYIVREFAIIGNTPSW,soluble
6,MAHHHHHHMEEQVDLEKALAVAIKAAQSAGNIMLEFYQLRREDTAAKMMRLLKEGGSHTTGELAASPKPTPVDLLDIKTKSSSTDLVTHYDKLCDETIMKILQRFNAKVEDEKRNEPSEAFSFQFITEELTPDTPLTDEPTWIVDPIDGTMSFVHGGCDCCISIGLAIKKQTVLAVVYCPFLSIVQHSVEDLRSTSAVAGELYTAIRGKGTFLNGQPIRVSADALPNTALVAFNYPMGARLSAAEIPSDSAQVGVLKRQKHRKVVEAAGHIREQLAMHPVQGIRSYGSCALILAQVAAGRIDLYMEPAGMVWDVCAGSLLITEAGGVVKNMWGGDFGLEGTTTIIAAANETLADYGIQLCTQVNYGDYWKK,soluble
7,MAHHHHHHMEPHMTSLVLRRDLSLEVPKLLIGAVQPYQTLAGPALTTSFLHQPDLLPFQRTAFSHAAVAPLYFHTLLHTLAEFAETPRAVQYSAVKLRHAPKADFWDSVGTLNCFYYSAHAPYGAPVEASVLDQHPAMGAVELVRPGHRMESDVKLTLFNDSHQPIASMLMTGPNGAPRETDDDAVESSQGTSSTSPHARTAFPYVAPPTKETTSASDCLSAVMIGGTRVYGGLYGDLMPMESGGGFGQRACYRVEDAAAYSPSLDARSRVSGTEAAAGERTASSSASTVMPPWVLYDCVQRFFLRLHRSGIFGGDAAVAPTEGWRVSAHHVVQTEDAVFGVPVEVVCAVPRVYPSYRLPPWRHRLGLPAIPNGAPPCVCLRCETRQGGRLVSTGVYFFNRW,soluble
8,MAHHHHHHMEQDAASRPVTESEQTTTSYHGHTVSFLLLLYRRLEFESSGSTRPKAMLLRSDDTSPWPSPAPLSPVPSRPSSCRSSFSSLSVTSCISIISLLISSKTAVSRFTSSSWRLRRSSSCCCNSCAVAILLPLRAHGTTQPTGKKKKKKKEREKRKTQDAHHN,not soluble
9,MAHHHHHHMESGKNAHRLNRIFRKPKTMVAPRAWRPAADGEGERQQPFSGVSLQRINAMISELSEEERTRALAQQDPPTVVQEELAKRAARFGLTIERADAGNNEKTASSEITPEVQAVFQRRMERFGQSAAEEAMQKRVARFGNAATSAEGPGVELKLSEADREAMQRRQSRFGG,soluble
10,MAHHHHHHMESPRQEPLPQQPSELNTNAAAVLSTTTTESYVYTCRMCRHVLFMHHEILPHYPEPVGSGNKGFKYRGGGHASSQQQQGLHAAQEGGDVCTSYFLDPDISPWVAEESREVHQVSGGLDVMPDTIYCPNRKCNAKIGTQSWVGSQCSCGAWVTPAFKIHSRVVDKMPVAQ,not soluble
11,MAHHHHHHMESQKERGNAAYREKRYRDAINAYTAAIELDLTNVRMVATLRANQAAAKMELKEYSSALLDCEFAIQNGVNSAKLYARRARIHEALNNYDDALRDIQKASEMDGSYQREFQRTKASSKKAMRKDYYKILDLPPNESDDAQIKRAYKKACLRWHPDKWANAGPEEKTHAEKMFKDVGEAFSILSDAKKKRMYDNGMIDNAVEGAGESGFSGFPGQDEALMEMMNRMFFTGGGMSGGFGFNGFPQGRRQQYQQSYTFQFF,not soluble
12,MAHHHHHHMETVDALDYSELVALNQEEALRRVLASYPRIGLQATELGRARRIVQRALYHKRAGDAVFLAYTSNLISSGLRDTFACLARDRLIDGFISTAGGIEEDAIKCLGKTLVGQFSLDGRELRRCGVNRTGNLLVPNDNYCHFENFFMPVLKHLHELQRESRWETMTAPSEMIAAIGAALGCKHPETCSDSLLYWCYRNNIPVFSPALTDGSIGDMIYFYNYSKKGLVLDPIVDVVRLRELGCRNRRCDDSQGGNRSQNNNGRTTCIVLGGGLPKHHLLQNVRADTVVYVSTGLEVDASPSSCNVAEDRANGVLLDNCEVVRVHGDASFVFPLLLCKAETSADTHKDVAA,soluble
13,MAHHHHHHMEVVVKSIGTAFTVAVIPVLKDNYSYVIHDKATNTLAAVDVSVDIDPVIDYVRRLGGVDRTTDLRTILSTHKHHDHSGGNISLQKKLNAMGAFRIIGGANEPIPGVTEKVREGDHFSIGELKVDVLDAPCHTSGHVLYKVYHPQKAENGIALFTGDTMFVGGIGAFFEGDAVLMCSALRKVYNLNGACESSACDATDVQKRDNHTYIFPGHEYTVNFLRFSRDALPASHPDVSFVEAQLRRYTESVAGNVPTVPSTLAEEKRQNLFLRTCDEAFVRVMNKGETAVKLMDFLYNTCP,soluble
14,MAHHHHHHMFGTTRVWRNTFLTKSVATPPISVIRTGPRWWADPERMVRQKLMYFTLGVDQLPLRRTAVIQKDLHRFHMCKPPPRIGDTTGYKRSRAAQLTTWYRRIQYQEYHLQHLFTRHVWGLVRAYPGNTTKIQGKADDGYVGYDSVPYHRYNRTPLPFPAREIYGRRE,not soluble
15,MAHHHHHHMFLFRHSAEPMEAEEERHERVDSTTEPHNAATAAARKRRTSADVANGEVSREASGVAESFDETGGAPHTPREGTAPPPDVHDMLEHQRPRDEDDAEADMAAAALAASAPAPFHGVPTLPMPRTCDENPQAEADGNSTQRHRSYSHTSRFAAPSPRSTSGISRGRSYSLSGLSAAELADVHEQQYRRCTSIVKSARCISARRASSVNGVVGVIDDLYTLASRRSSAMTEAERVAVERMIENEYRRQEAAERSAQFALARESIIVNEELAREKATYVRRMHLNEELHARLAKSSRTRQERMTAAAQRRQEIEQERLRVLYGSMMEKDTRYHFRNPYEMMAAQRRYSIEMRSPAAIAPQRRASSPSTRASGNAQMSPRSAEGVANCTTEDRCTSSPATRRRSSTPSIAKSKPRQCLPLDAWKKPVPPRKDSCRSDISAEHRCRSPTDWRATAVLEHPRQWH,not soluble
16,MAHHHHHHMFNEAAVPFIQTARDNGLLFGGSDAPAMIDYTSEHGKSYHVRGSIFEVAPHFEVLNGIGYGAYGVVCAAVDLRLVASSVYYNEAMRTIEEEGRIVTRQRRGHDAPVYFRTRAVLDEAGRGGPVRVPHLYSEPFKRRTLARGEVSPFVAIKKVTKVFDDLVDGRRILREIKLLRYLQGHPNIVRLMEVGRPPAPTGASSSAAFDDIYLVTDLMDTDLGALLRSSQEIAMDQLRFIAYQLMKVLVYVHSSGVIHRDLKPGNILLNGNCDMKLCDFGLSRGGVPAWPHERTLTAVATAAESSAKELEDWGLFCWSSSAARGASSAPHAAKQPPLYSLTDYVVTRYYRAPELLIMGRYNHAIDMWSAGCILAEMVLRRPLFTGANYLSQLALILETPGLRGVPQTPEEAAALFEGGEEGKHFINDILFHKTARRRDPLTLSDQVHSQVLFHSTLFGFKVDVPISLGILIAKLLSFDPRKRPTALEALRDPFFWPLYDSRDEILRCPASDPSVAREQIDDIAAYQKAHPCVVVDESPVFTWEFDHRITSAQALRGLFEEECQISRDVQQQLERQQRLRSSPVVKCSERRTLERSLFSGASDGSSGGDGAH,not soluble
17,MAHHHHHHMFPASGSGPGVAGSALKGFKGMHHKPPNYPYPYVVGVDGAGEVESVGRKVTGLKAGDRVMFHSSLTNAHGGSLCEYAVMEESVAVPIPADGARPFSYEEAAAIPCATWTAYVALFDKLRIEPGRSIFVDGASGAVGSCAVQLAHHMGLYVFASCSPSNADYVRSIGADQVLNYHDGIEMVDQILDATEGYGVDYYLAVTNTQDAESFTDALRFGGAVCLLSGVLIPNSNVLFRRQLSVHYVFLNGLHGHPLTRPQLRYIGDQVAKLYQSGAFRLDVEVLPFAEAAKALDRSATGNVNHKKLIVQVASP,not soluble
18,MAHHHHHHMFSRHSLWVPAASHFPKFVEHFNRFLKASPHNVELQKALCYKEEETQLLIIQDPKARQPIFAMAFPFTVTSALCDGSRMGLGTFTSLVDTTTSLHVAAALLPTNDMHVSVSLQTNCVQPITAGEKVVMISRMDKFGKRLAFLSARLLRLDDVYENTVAPTAGRELEELERQLSQYQTLANGTHVKCILTGKS,not soluble
19,MAHHHHHHMFSSHKTPAKAQRDGYDDEQHLVAAVSEFKKVEASNQSMVDQLHQRLASPFQITAKPCEAGRAAVLQCYQQLQSSSAVTTSNAASSTSPAPPPGARSDSKSAKVAPAEAWLSIPYQQCYETALAYHQCVEDTLAKHLALVAAFEQCGTQQKIAHQSAMKAQDKPQ,soluble
20,MAHHHHHHMGDESNAIGQEALLYDKMFRVMRTVGEMMCDRKYQVADKIIPSSVEEFKDWYTDPREGVIYRDRMTVPCERIGVSQRSRAMVFFSEGLSMETMKRYHTQASEANCDRVIIVVQGRINAIVKRHVEDINRSSLGLKIQLFDEDDLVVNITHHELVPKHTQLEDEEVKEMLQAHALELSALPRILSTDPVAAYLGLERGRVVRIERKSMSAGFYVTYRQVV,not soluble
